The labels stand for the following.
B1: Hairpin Ribozyme (parent)
chain: GUCCUCUUUCACGUGCGCGUGAAAGAGAGAAGUGAACCAGAGAAACACACGUUGUGGUAUAUUACCUGGUA

In this data set the parent is B1. As to the kind of experiment: self-cleavage, relative activity (ratio to wild type); higher = more cleavage; co-transcriptional.
For the variant G27U U70C, the self-cleavage was found to be 0.105.

For the variant A28C U52G, the self-cleavage was 0.301.

On to A30C A71G, for which the self-cleavage worked out at 0.247.

As to A30C A71C, the self-cleavage is 0.592.

For A28U A59G, the self-cleavage was 0.243.

For the variant G29A C37A, the self-cleavage came out at 0.107.

Turning to G29A C37G, the self-cleavage was found to be 0.103.

As for G29A C37U, the self-cleavage is 0.134.

Turning to G29U U70A, the self-cleavage was found to be 0.21.

As for G29U G34A, the self-cleavage stood at 0.0892.

As for A28G G68A, the self-cleavage stood at 0.349.

Turning to A28U C48A, the self-cleavage stood at 0.131.

As to A28U C48U, the self-cleavage is 0.251.

For G29C G42A, the self-cleavage turned out to be 0.13.

As for G29C G42U, the self-cleavage came to 0.11.

Consider G29U C66U, for which the self-cleavage came out at 0.106.

G29C U67C: the self-cleavage came to 0.0789.

As to G29U C38G, the self-cleavage turned out to be 0.186.

G29U C38A: the self-cleavage came to 0.179.

With G29A A64G, the self-cleavage stood at 0.0994.

As to G29A G34U, the self-cleavage is 0.131.

With G27U U67A, the self-cleavage is 0.177.

As for G29A A45G, the self-cleavage stood at 0.105.

Regarding A30C C46U, the self-cleavage came to 0.367.

As for A28G U53A, the self-cleavage is 1.01.

Regarding A28G U53C, the self-cleavage was 1.06.

As to A28G U53G, the self-cleavage is 1.13.

For the variant A28U A61U, the self-cleavage was found to be 0.12.

On to A28U A61C, for which the self-cleavage amounted to 0.18.

Take G29U G56A: the self-cleavage amounted to 0.162.

In the case of G29U C37A, the self-cleavage was determined as 0.163.

A28C U33C: the self-cleavage was 0.107.

For the variant G29A A36G, the self-cleavage turned out to be 0.135.

As for G27U A41U, the self-cleavage was found to be 0.554.

As to G27U A41G, the self-cleavage came to 0.305.

With G29A U62A, the self-cleavage amounted to 0.123.

Consider G27U C66G, for which the self-cleavage was found to be 0.126.

Turning to G27U C66U, the self-cleavage was 0.288.

In the case of A30G A43U, the self-cleavage stood at 0.221.

As to G27U A39U, the self-cleavage worked out at 0.144.

Turning to G27U A39C, the self-cleavage was found to be 0.107.

On to G29A A35G, for which the self-cleavage amounted to 0.147.

On to G29A A35C, for which the self-cleavage came to 0.187.

In the case of A30C A47C, the self-cleavage was 0.156.

In the case of A28U A35C, the self-cleavage is 0.704.

For the variant A28U A35G, the self-cleavage stood at 0.599.

In the case of G29C G32C, the self-cleavage amounted to 0.128.

As to G29C G32A, the self-cleavage stood at 0.167.

In the case of G29C G32U, the self-cleavage stood at 0.121.

A28C A71C: the self-cleavage worked out at 1.05.

For the variant A28C A71U, the self-cleavage turned out to be 0.291.

Turning to A28C A71G, the self-cleavage stood at 0.457.

A30C G57C: the self-cleavage worked out at 0.0882.

For the variant A30C G57A, the self-cleavage amounted to 0.158.

Turning to G29C G51U, the self-cleavage was 0.141.

Turning to A28G A59U, the self-cleavage stood at 0.32.

For A30C A39G, the self-cleavage stood at 0.1.

As to G29C G57U, the self-cleavage worked out at 0.142.

For G29C G57A, the self-cleavage is 0.215.

On to G29A C66A, for which the self-cleavage was determined as 0.139.

In the case of G29C A61C, the self-cleavage worked out at 0.206.

With A28C U53C, the self-cleavage was found to be 0.598.

For G29U G68C, the self-cleavage is 0.137.

Regarding G29A G40C, the self-cleavage turned out to be 0.0971.

As for A28U C65A, the self-cleavage was 0.497.

In the case of A28G C65A, the self-cleavage was 0.884.

As to A28G C65G, the self-cleavage amounted to 0.409.

On to G29U A45U, for which the self-cleavage was 0.101.

For G29U A45C, the self-cleavage amounted to 0.0757.

In the case of A28U A64U, the self-cleavage came to 0.0714.

With A28U A64C, the self-cleavage amounted to 0.278.

Take A28U A64G: the self-cleavage was determined as 0.167.

For G29C A43C, the self-cleavage amounted to 0.125.

G29C G40A: the self-cleavage is 0.115.

In the case of G29C G40C, the self-cleavage is 0.133.

On to A30C G69U, for which the self-cleavage was 0.124.

Take G27U A44G: the self-cleavage turned out to be 0.193.

Regarding G27U A44C, the self-cleavage was 0.0839.

For the variant A28C C50A, the self-cleavage came to 0.151.

For the variant A28C C50G, the self-cleavage is 0.107.

With G29U A30G, the self-cleavage stood at 0.189.

Consider G29U A30U, for which the self-cleavage was determined as 0.176.

For the variant A28U C37U, the self-cleavage stood at 0.376.

Take A28U C37G: the self-cleavage came to 0.193.

G29A U33G: the self-cleavage was determined as 0.167.

Take A28G A41C: the self-cleavage worked out at 0.961.

As to A28G A41G, the self-cleavage stood at 0.908.

Take A28C A49C: the self-cleavage turned out to be 0.119.

In the case of A28G G51C, the self-cleavage was found to be 1.08.

Regarding G27C U67C, the self-cleavage stood at 0.103.

Consider A30G A45U, for which the self-cleavage turned out to be 0.177.

As to A28C C48U, the self-cleavage was 0.124.

As to G27U A64C, the self-cleavage stood at 0.173.

G27U A64U: the self-cleavage is 0.129.

For the variant A28G G40U, the self-cleavage is 0.19.

For A28U U70C, the self-cleavage was found to be 0.394.

On to G29A C48G, for which the self-cleavage is 0.124.

For G29U A39C, the self-cleavage was 0.174.

With G29U U60C, the self-cleavage was found to be 0.107.

Turning to G29A G56C, the self-cleavage was 0.166.

In the case of A30C G54U, the self-cleavage came to 0.0809.

For the variant A28G G34U, the self-cleavage was 1.65.

For A28G G34C, the self-cleavage was 0.999.

Turning to G29A A41U, the self-cleavage was 0.156.

In the case of A28G U33A, the self-cleavage turned out to be 0.157.

Take A28C G40C: the self-cleavage worked out at 0.0679.

As for A28C G40U, the self-cleavage amounted to 0.101.

With A30C U62G, the self-cleavage was 0.134.

For G29C U63C, the self-cleavage was determined as 0.094.

Take A28C C38A: the self-cleavage was found to be 0.205.

In the case of A28U A39U, the self-cleavage turned out to be 0.222.

A28U A39G: the self-cleavage is 0.143.

In the case of A28C A36G, the self-cleavage was found to be 0.552.

Turning to A28C A36U, the self-cleavage was determined as 0.302.

Take A28C A36C: the self-cleavage was found to be 0.32.

Regarding A28U G42U, the self-cleavage stood at 0.218.

Turning to A28U G42C, the self-cleavage is 0.0977.

Regarding G29U A47C, the self-cleavage turned out to be 0.0936.

As for G29U A47U, the self-cleavage was found to be 0.169.

In the case of G29C C48U, the self-cleavage came out at 0.203.

Turning to G29U U58C, the self-cleavage was 0.18.

Turning to A28C U70A, the self-cleavage worked out at 0.468.

For G29A A30U, the self-cleavage is 0.0939.

Turning to G29A A30C, the self-cleavage worked out at 0.115.

Consider A30G A41U, for which the self-cleavage is 0.244.

For G29U G32C, the self-cleavage was 0.105.

As to G29A G51C, the self-cleavage turned out to be 0.216.

With G29U G42C, the self-cleavage is 0.115.

G29U G42A: the self-cleavage amounted to 0.0859.

A28C G32A: the self-cleavage was found to be 0.172.

In the case of G27U A28G, the self-cleavage was 0.119.

Turning to G29C A39C, the self-cleavage was 0.106.

For the variant G29C A39G, the self-cleavage turned out to be 0.0911.

In the case of A28G G69C, the self-cleavage worked out at 0.46.

Take A28G A35U: the self-cleavage came to 1.13.

With A28C U62G, the self-cleavage was 0.18.

Regarding A28C U62A, the self-cleavage was determined as 0.159.

Turning to A28C U62C, the self-cleavage was found to be 0.203.

Take G29C U60G: the self-cleavage amounted to 0.201.

Consider G29C A35U, for which the self-cleavage came out at 0.0473.

G29C A35C: the self-cleavage turned out to be 0.104.

In the case of G29C A30C, the self-cleavage came out at 0.0921.

Turning to A28G U70A, the self-cleavage was 1.05.

With G29C A41C, the self-cleavage stood at 0.0573.

G29C A41G: the self-cleavage came to 0.142.

Turning to G27U U58C, the self-cleavage was 0.318.

For A30C A45C, the self-cleavage came to 0.126.

As for G29C G68A, the self-cleavage was found to be 0.0962.

For the variant G29U U53G, the self-cleavage was found to be 0.102.

With A28C U63A, the self-cleavage came to 0.0573.

As for G29U A64U, the self-cleavage was 0.14.

With G27U G68A, the self-cleavage amounted to 0.128.

A30C G34A: the self-cleavage was 0.0999.

Turning to A30C A36C, the self-cleavage is 0.164.

In the case of A30C A36G, the self-cleavage is 0.223.

On to A30C U33A, for which the self-cleavage was 0.0224.

Turning to G29U G54U, the self-cleavage was 0.207.

On to G29A A49U, for which the self-cleavage came to 0.122.

As for A28U U62C, the self-cleavage came to 0.272.

For A28U U62A, the self-cleavage worked out at 0.0878.

On to A28U U62G, for which the self-cleavage was 0.0982.

For the variant A28G A47C, the self-cleavage came to 0.42.

As for A28G A47U, the self-cleavage was found to be 0.192.

G29C A49C: the self-cleavage was found to be 0.159.

On to G29A G54C, for which the self-cleavage amounted to 0.0856.

Turning to G29A G54U, the self-cleavage came to 0.214.

On to A28C A31C, for which the self-cleavage came out at 0.

Source of the values: the RNAGym collection of RNA variant scans (doi:10.7554/elife.80360).
